Measured values from the supplement of paper PMC12764529.
± gives the half width of the 95% confidence interval.

Experiments:
[1] = folding stability dG unfold from trypsin proteolysis; higher = more stable
Outline: (§1)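 Designed mini-proteins (under 80 residues, no cysteine) in a PA-tagged cDNA display construct were digested with trypsin and chymotrypsin. Each protease was used at 11 concentrations (threefold dilutions) plus a no-protease condition, followed by sequencing. K50 was inferred by Bayesian fitting of sequencing counts, and unfolding free energy was derived against a sequence-predicted unfolded-state K50 and a shared folded-state K50, per protease or combined. Only designs with AlphaFold2 dimer inter-PAE above 15 were kept.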

[2] = folding stability dG unfold from chymotrypsin proteolysis; higher = more stable
Outline: as §1

[3] = folding stability dG unfold (combined trypsin and chymotrypsin); higher = more stable
Outline: as §1

Sequence	folding stability dG unfold [1]	folding stability dG unfold [2]	folding stability dG unfold [3]
SAGGSAMKVDPSTKVVTVTDPKTGKEYRVNLPDVPPEKGVEVKVDNGKVTVKTEEGVRVIPYSELKSAGGSA [r15_864_JUSTAS]	0.609 ± 0.044 kcal/mol	0.538 ± 0.12 kcal/mol	0.71 ± 0.097 kcal/mol
SAGGSAMKVRLEVEEEDGKLRVRLEVEVGPPVVRVEVEAEVEEVDGELVLKVTVKVELSPEALEALSAGGSA [r15_725_TrROS_Hall]	3.47 ± 0.22 kcal/mol	3.78 ± 0.11 kcal/mol	3.78 ± 0.15 kcal/mol
SAGGSAMKVYKIKLEFENEETGKRVEIEAEVVEVDGELYLVMKAKVVDEETGEEKEIEIVIKLPKESAGGSA [r15_960_TrROS_Hall]	2.48 ± 0.21 kcal/mol	2.27 ± 0.4 kcal/mol	2.31 ± 0.21 kcal/mol
SAGGSAMLKVTERTVEVEVFDEEGNPIGWRERKIVVEDPLSPEPRPPPPPVDPVLAAETLGADVLESAGGSA [r15_572_JUSTAS]	-0.0577 ± 0.14 kcal/mol	0.543 ± 0.21 kcal/mol	0.393 ± 0.14 kcal/mol
SAGGSAMLTLLYRVPPGDPLAHAREIAEALEERFGAKVRILDVKVERDPVTREVYIPVVVELELPESAGGSA [r15_70_TrMRF]	0.856 ± 0.074 kcal/mol	1.3 ± 0.16 kcal/mol	1.14 ± 0.17 kcal/mol
SAGGSAMLVFKITIKNPETNETIELEIEAETLEEAKEAIEKLIAELTGKEPTEIKIEVVEIKEEDLSAGGSA [r15_670_TrROS_Hall]	4.09 ± 0.35 kcal/mol	4.47 ± 0.3 kcal/mol	4.42 ± 0.27 kcal/mol
SAGGSAMLVIEIEVDGKKVTLVIEVPPEMTEEEIRELAEELAERLRALPGVKEVKVKIERVPPPPESAGGSA [r15_246_TrROS_Hall]	4.06 ± 0.22 kcal/mol	3.56 ± 0.18 kcal/mol	3.85 ± 0.26 kcal/mol
SAGGSAMLVKVTITLKKGGKEYTLEQFVEVNPPDLKIEIPPEIKEKGWEIVDIEVEEITPEEAERKSAGGSA [r15_853_JUSTAS]	1.24 ± 0.091 kcal/mol	3.19 ± 0.039 kcal/mol	2.8 ± 0.28 kcal/mol
SAGGSAMLVVADDPEVVRELVEPLFPDGEPVLVVGATEEEAAKLVEELKKKGLPFKVVVVRRPDRPSAGGSA [r15_567_TrMRF]	0.932 ± 0.048 kcal/mol	-0.039 ± 0.23 kcal/mol	0.657 ± 0.14 kcal/mol
SAGGSAMMLAKVKIELPNGEIVEIPIEFESLEELEEKIKEKARELFPDIPIEDIKILDIELYSLEESAGGSA [r15_220_TrMRF]	4.06 ± 0.27 kcal/mol	5.32 ± 0.13 kcal/mol	5.31 ± 0.34 kcal/mol
SAGGSAMMTLEEAIEKAAKNIPVGEKKIIEIKLEKGTFTVEIEKIGPKEVKIKILKISKGPEEEEISAGGSA [r15_150_TrMRF]	3.99 ± 0.23 kcal/mol	4.68 ± 0.18 kcal/mol	4.61 ± 0.3 kcal/mol
SAGGSAMPEDTPFVVTKTTEYRLPDGSRVTFEPVPETGKTLVTFTPPDGSSERVWLTPEEAEKLLASAGGSA [r15_2_JUSTAS]	1.11 ± 0.02 kcal/mol	1.3 ± 0.1 kcal/mol	1.22 ± 0.11 kcal/mol
SAGGSAMPLLIVDKNNNVTLISASSPEELEELLKKYNIKKIEPFPFPDGKALVFIAEYPDGIIYSGSAGGSA [r15_632_TrMRF]	1.3 ± 0.02 kcal/mol	1.65 ± 0.047 kcal/mol	1.52 ± 0.049 kcal/mol
SAGGSAMPVVELPIGPELYEKIKEAAEAGDPDKVITLPLKLPNGEEVTLVVEADPATPEFRARVELSAGGSA [r15_700_TrMRF]	-0.683 ± 0.1 kcal/mol	0.397 ± 0.085 kcal/mol	0.105 ± 0.096 kcal/mol
SAGGSAMQQLDITKTKWDPNTGTLSVTAKDPLTGEVTTYTIPRNGPTLNFPPGAELKSVETEPPPLSAGGSA [r15_959_JUSTAS]	0.0912 ± 0.28 kcal/mol	-0.368 ± 0.37 kcal/mol	-0.0792 ± 0.27 kcal/mol
SAGGSAMSITISDISSVKNLTITETTPDGTPVTVTVNATTGSGPPTLTFTATTPGTGATTTTTTAFSAGGSA [r15_1006_JUSTAS]	0.693 ± 0.014 kcal/mol	-0.299 ± 0.099 kcal/mol	0.38 ± 0.051 kcal/mol
SAGGSAMSLEELKGHLVRLTLPDGRVVVAPVKEMDEEAPVLVIEFGGKPILIPKDAPVKLEVLPPGSAGGSA [r15_355_TrMRF]	0.962 ± 0.039 kcal/mol	0.581 ± 0.052 kcal/mol	0.759 ± 0.062 kcal/mol
SAGGSAMSPEEVEEKIKEIAKKLGVEIEVKVEISPEGGIKITVKVNDKFDINEIKKGIEEALGIKLSAGGSA [r15_807_JUSTAS]	4.4 ± 0.55 kcal/mol	2.65 ± 0.16 kcal/mol	3.94 ± 0.45 kcal/mol
SAGGSAMSVTLTFEEPVGPGVPVKVTVTVERFPDSVKVTVTTTFPDGTVTTTPVSLKLEPAAVDLLSAGGSA [r15_263_JUSTAS]	2.44 ± 0.11 kcal/mol	2.694 ± 0.022 kcal/mol	2.54 ± 0.082 kcal/mol
SAGGSAMTAEEVEEKVREAFAALGVEAEVEVRESPEGGLEVLVVTGEDADLEEVKAALEELFGTDISAGGSA [r15_807_TrMRF]	2.51 ± 0.12 kcal/mol	2.5 ± 0.064 kcal/mol	2.48 ± 0.078 kcal/mol
SAGGSAMTIEIVVPTLEAIEKLAEETGAEVVEVRFFEEEGLVVVRIKVPESKEELLEKIREALGLESAGGSA [r15_118_TrROS_Hall]	2.17 ± 0.069 kcal/mol	2.1 ± 0.092 kcal/mol	2.11 ± 0.1 kcal/mol

Sequence	folding stability dG unfold [1]	folding stability dG unfold [2]	folding stability dG unfold [3]
SAGGSAMTIEKREDGYLVITVDVPPGTSPEELAERLKKLFPNEEVTVTVVKDGKLVKEFVIKAEDLSAGGSA [r15_1047_TrROS_Hall]	2.25 ± 0.056 kcal/mol	2.06 ± 0.034 kcal/mol	2.2 ± 0.071 kcal/mol
SAGGSAMTLEEARELVERLVRELFPDAEVLDVDAVRLPDRLVLVDAVVRPKYRPDEVLRFRFLLGDSAGGSA [r15_627_TrMRF]	3.53 ± 0.1 kcal/mol	4.106 ± 0.032 kcal/mol	3.94 ± 0.06 kcal/mol
SAGGSAMTLRLELRVRLQVFNEDGELLGERELDIEIELEGEPLEVPPPPEIDPEEAARLLGLDPDGSAGGSA [r15_572_TrMRF]	0.909 ± 0.098 kcal/mol	2.84 ± 0.039 kcal/mol	2.37 ± 0.25 kcal/mol
SAGGSAMTTIVKTEPPTLDEEGNPYIRLTIKFPNGGTTTITLAPSELPQYLADLPPGFEVEEINPLSAGGSA [r15_339_JUSTAS]	2.41 ± 0.11 kcal/mol	2.69 ± 0.038 kcal/mol	2.65 ± 0.11 kcal/mol
SAGGSAMTTVTWTFPPSTSVEEAIEALKAQLEAERNEKIEIPSISVSTTGDTITVTLPIKIEPLPASAGGSA [r15_105_JUSTAS]	1.86 ± 0.049 kcal/mol	0.327 ± 0.22 kcal/mol	1.26 ± 0.14 kcal/mol
SAGGSAMTVEELKELFPGYPITEITDFQPVDGWYTLSIKYPNNGKKRQINVEGMPPELAKEIMELISAGGSA [r15_830_TrROS]	0.161 ± 0.036 kcal/mol	-0.394 ± 0.21 kcal/mol	0.0457 ± 0.098 kcal/mol
SAGGSAMTVTKVGSETKTDPAKGIVTTTEITKLPTGGLTKTVTTTTIEGGKVKSSTTTTTAIPVGTSAGGSA [r15_283_JUSTAS]	-0.156 ± 0.061 kcal/mol	0.266 ± 0.065 kcal/mol	0.104 ± 0.085 kcal/mol
SAGGSAMTVTVELEFEPVTVTDADGKEREVPVRVKVTAKVELVRDPETGELVERVEVTSIEIEVEPSAGGSA [r15_884_TrROS_Hall]	1.73 ± 0.069 kcal/mol	1.92 ± 0.079 kcal/mol	1.87 ± 0.15 kcal/mol
SAGGSAMTVTYTPSTKTITITDPSNGKPVKVTVTEEKPVVPGKNVYELTVTVPDTGGEKKILITLPSAGGSA [r15_209_JUSTAS]	0.848 ± 0.055 kcal/mol	-0.192 ± 0.15 kcal/mol	0.55 ± 0.11 kcal/mol
SAGGSAMTVVKVTLKSPSGTTTVTLPAEEWERFLAAPEVSKTWTLTEVVEEEEPPPELDPEAVELGSAGGSA [r15_460_JUSTAS]	0.626 ± 0.11 kcal/mol	1.12 ± 0.15 kcal/mol	0.864 ± 0.3 kcal/mol
SAGGSAMTYTITLKTPGSQSLELSLDEKLKLLSQTIDPNTGVTTLTLEGDPEEAKKLEQEIKEKLASAGGSA [r15_662_JUSTAS]	1.56 ± 0.059 kcal/mol	1.66 ± 0.11 kcal/mol	1.56 ± 0.17 kcal/mol
SAGGSAMVDKTMTEEEARAFAEASGDPRVTVEPVENPNNDPNAPKKWRITVDGSGTPGSTILFTSPSAGGSA [r15_428_JUSTAS]	-0.398 ± 0.12 kcal/mol	-0.928 ± 0.28 kcal/mol	-0.55 ± 0.089 kcal/mol
SAGGSAMVRLPDGTLVIDVKLPEDRPDAKVTVTVLEDGSPVGSVDVNTGKVTISVSPGVSVSITVESAGGSA [r15_180_JUSTAS]	2.12 ± 0.051 kcal/mol	1.53 ± 0.046 kcal/mol	1.79 ± 0.052 kcal/mol
SAGGSAMVSLEEAKEATLREVKAALGFSPDATPEELRARGVPVRVPITVRDEKGNVIAELELELPGSAGGSA [r15_391_JUSTAS]	-0.118 ± 0.04 kcal/mol	0.571 ± 0.046 kcal/mol	0.37 ± 0.039 kcal/mol
SAGGSAMYTVTLTLPPSLAIPPDSTITVTFPDGSTETYSVDSGPVTITLTAPADGSTSVGVSLSVPSAGGSA [r15_992_JUSTAS]	2.6 ± 0.097 kcal/mol	3.67 ± 0.04 kcal/mol	3.27 ± 0.1 kcal/mol
SAGGSANFNVKLEIKIIERNPGNPDYVIVRIKVEHRHPNPDGNPMEHRRPIPWIMITDPEEIKEFISAGGSA [r15_1019_TrROS]	2.32 ± 0.12 kcal/mol	2.39 ± 0.029 kcal/mol	2.36 ± 0.084 kcal/mol
SAGGSANGKRVEVPITIFFYRRDPEDGKWEPIFPFEIPIRIPVPPGAEVTIEIEFTGNMFRITIEVSAGGSA [r15_537_TrROS]	3.19 ± 0.11 kcal/mol	4.53 ± 0.094 kcal/mol	4.09 ± 0.13 kcal/mol
SAGGSANLPPGQPKIITITIPLGEEVRNPDGEPMTPEDIADNFQERFGNIEVEKSPNGWLEVTFWLSAGGSA [r15_645_TrROS]	1.3 ± 0.06 kcal/mol	0.637 ± 0.15 kcal/mol	1.18 ± 0.19 kcal/mol
SAGGSANVQVEQTGDGKIKIEFPWYGAEITLNPKKGDIEVEVLPNYKNGQPPPEDEVKNLAKEILDSAGGSA [r15_735_TrROS]	-0.0532 ± 0.092 kcal/mol	0.971 ± 0.047 kcal/mol	0.739 ± 0.13 kcal/mol
SAGGSAPAKVEPLRVKIEFTPPNGEKHTFPMEIHRVHDNAIEIQDGGQPIRIPPNLDNIQITDIELSAGGSA [r15_510_TrROS]	-0.614 ± 0.34 kcal/mol	0.558 ± 0.044 kcal/mol	0.356 ± 0.14 kcal/mol
SAGGSAPDDVEVEIKNIHYNPNWGYIMITIKVDGPVDSIEIELPNGWEISVMRDKDGTMTIMFPFPSAGGSA [r15_736_TrROS]	2.43 ± 0.1 kcal/mol	3.29 ± 0.18 kcal/mol	3.15 ± 0.32 kcal/mol
